Test results taken from the nanobody polyreactivity screen of Harvey et al. (2022).

Assay: yeast display, Sf9 membrane polyspecificity reagent, FACS + sequencing; frameworks hold sequencing errors
How it was run: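 Galactose induction of a Saccharomyces cerevisiae BJ5465 synthetic nanobody display library ran 36–48 hours. The cells were then stained for 1 hour at 4 °C with 10% biotinylated, detergent-solubilized Sf9 membrane reagent, pulled down on streptavidin microbeads and FACS-sorted into low and high (top ~1%) gates on expression and reagent-binding fluorescence. Labels for polyreactivity follow the gate of origin.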

Row | Sequence | polyreactivity (PSR sort gate)
1 | QVQLVESGGGLVQAGGSLRLSCAASGSTFYSYSMGWNRQAPGKERELVAAITKSGGSTYYADSVKGRFTISRDNAKNTVYLQMNSLKPEDTAVYYCAARQGVRMYWGQVTQVTVSS | high polyreactivity
2 | QVQLVESGGGLVQAGGSLRLSCAASGRIFNRNAMGWYRQPPGKERELGAAISRSGSRTYYADSVKWRFTISRDNAKNTVYLQMNSLKPEDTAVYYCAVSGYSPYLYRYGYWGQGTQETVSS | high polyreactivity
3 | QVQIVETGGGLVQAGGSLRLSCAASGFIFSNYARGRYRQAPGKERELVAAISWSGGRTYYADSVKGRFTISRDNAKNSVYLQMNSLKPEDTAVYYCATRYGSASGREYEYWGQGTQVTVSS | high polyreactivity
4 | QVQLVESGGGLVQAGGSLRLSCAASGRIFYYNTMGWYRQSPGKERELVAAISSTASTTYADSVKGRFTISRENAKNTVYLKMNILKPEDTAVYYCAAAYSVRGRTYDSWGQGTQVTVSS | high polyreactivity
5 | QVQLVESGGGLVQAGGSLRLSCAASGFIFRTYAMGWYRQAPRKERELVAAITYSAGSTYYADSVKGRFTISRDNAKNTVYLQMNSLKPEDTAVYYCNVRKTWYGYSVTGRYDYWGQGTQVTVSS | low polyreactivity
6 | QVQLVESGGALVQAGGSLRLSCAASGCIFAPYAMGWYRQAPGKERELVADITEDTGITYYADSVKGRFTISRDNAKNNVYLHMNSLKPVDTAVYYCNAEFYFYDYWGQGTQVTVSS | low polyreactivity
7 | QDQLVESGGGLDQAGGSLRLSCAASGRIFALNAMGWYRQAPGKERELVATIRWRGGSTYYADSVKGRFTISRDYAKNTVYLQMNSLKPEDTAVYYCASYSGNRRTYDYWGQGTQVTVSS | high polyreactivity
8 | QVPLVESGGGLVQAGGSLRLSCAASGSIFYTNAMGWSIPAPGKERELVARLSSSSGRTYYADSVKGRFPISRDNAKNTVYLKMKSLIPDYTAVYYCAARYLLRRHTNMDYWGHGTQVTVSS | high polyreactivity
9 | QVQLVESGGGLVQAGGSLRLSFAASGSILSYYAMGWYTQAPGKERELGAAISKSGGRTYYADSVKGRFTISRDNEKNTVYLQMNSLKPEDTAVYYCAADRYYLSRRPVQNGNEYWGQGTQVTVSS | high polyreactivity
10 | QVQLVESGGGLVQAGGSLRLSCAASGSIFVNYAIGWYRQAPGKERELVAAISRSGGRTYYADSVKGRFTISRDNAMNSVYLQMNSLKPEDTAVYYCNVYPVLRTIEGDYWGQGTQVTVSS | high polyreactivity
11 | HVQLVESGGGLVQAGGSLRLSCAASVFILSPNTMGWYRQAPGKERELVAAISSDVSTYADSVKGRFTISRDNAKNTVYLQMNSLKPEDTAVYYCNADDFGYASYEYWGQGTQVTVSS | low polyreactivity
12 | QVQLVESGGGLVQAGGSLRLSCAASGRTIDHYAMGWYRQAPGKERELVAAISTTGGSTYYADSVKGRFTISRDNAKNTVYLQMNSLKPEDTAVYYCAARQRYFWYTTNYNYWGQGTQVTVSS | high polyreactivity
13 | QVQLVESGGGLVQAGGSLRLSCAASGSIFVEYAMGWYRQAPGQERELVAAISYSGSSTNYADSVKGRFTISRDNAKNTVYLQINSLKPEDTAVYYSNADGTGGEQKPYYELDYWGQGTQVTVSS | low polyreactivity
14 | QVQLVESVGGLVQAGGSLRLSCDASGRIFVKYAMGGSRQAPGKERELVASITSGGRTNYADSVKGRFTISRDNAKNTVYLQMNSLKPEDTAVYYCAADARQSRYNYWGQGTQVTVSS | high polyreactivity
15 | QVQLVESGGGLVQAGGSLRLSCASSGIIFYPNAMGWYRQAPAKERELVAAITSDGSTYYADSVKGRFTISRDNAMNTVYLQMNRLKPEDTAVYYCAAWEDYGYDYWGQGTQVTVSS | low polyreactivity
16 | QVQLVESGGGLVQSGGSLRLSCGASGLIYGPNSMGWYRQAPAKERELVAAITKSGDSTYYADSVKGRFTISRDNAKNTVYLQMNSLKPEDTAVYYCAAEWYPYPWGYGYWGQGTQVTVSS | low polyreactivity
17 | QVQLVESGGGLVQAGGSLRLSCAASGIIFQDNAMGWYRQAPGKERELVATIDRGGDTYYADSVKGRFTISRDNAKNTVYLQMNSLKPEDTAVYYCAAVEFELRGDYWGQGTQVTVSS | low polyreactivity
18 | QVQLVESGGGLVQAGGSLRLSCAASGYTFYGYAMGWYRQAPGKERELVATISTGGTTTYADSVKGRFTISRDNAKNTVYLQMNSLKPEDTAVYYCAADANQVRDVHEFYPYLHDYWGQGTQVTVSS | low polyreactivity
19 | QVQLVESGGGLVQAGGSLRISCAASGFIFVRYAMGWYRQAPGKEREFVAVISRRGGSTHYADSVKGRFTISRDNAKNTVYLQMNSLKPEDTAVYYCAAVRRVYSQNDYWGQGSQVTVSS | high polyreactivity
20 | QVQLVESGGGLVQAGGSLRLSCAASGIIFRTYAMGWYRQAPGKERELVAAINSDGSTYYADSVKGRFTISRDNAKNTVYLQMNSLKPEDTAVYYCAAVVWRIHAYYWAVDGWYYYWGQGTQVTVSS | high polyreactivity
21 | QVQLVESGGGLVQAGGSLRLSCAASGIIFRRYAMGWYRQAPGKERELVAAISWSGGSTYYADSVKGRFTISRDNAKNTVYLQMNSLKPEDTAVYYCAAAAYTRDEYDYWGQGTQVTVSS | high polyreactivity
22 | QVQLVESGGGLVQAGGSLRLSCAASGSTVRRYAMGWYRQAPGKERELVATISSGGRTNYADSVKGRFTISRDNAKNTVYLEMNSLKPEDTGVYYCAARPYFYERSAGYYWGQGTQVTVSS | high polyreactivity

Row | Sequence | polyreactivity (PSR sort gate)
23 | QVQLVESGGGLVQAGGSLRLSCAASGFIFDFYTMGWYSQAPGKERELVAAITNGGSTYYADSVKGRFTISRDNAKNTVYLQMNSLKPEDTAVYYCAAYYRSRHHGYDSWGQGTQVTVSS | low polyreactivity
24 | QVQLVESGGGLVQAGGSLRLSCAASGGTFGLNAMGWSRLAPGKARELVADIDGRGGSTYYADSVKGRFTISRDNSKNTVYLQMNSRNPEDTAVYYCAARAPFLSVPSELDYWGQCTQVTVSS | low polyreactivity
25 | QVQLVESGGGLVQAVGSLRLSCAASGSIFGAYAMGWYRQAPGKERELVAAITSGGSTNYADSVKGRFTISRDNAKNTVYLQMNSLKPEDTAVYYCAARRRYAKFRYDYWGQGTQVTVSS | high polyreactivity
26 | QVQLVESGGGLVQAGGSLLISCAASGITFDGYAMGWYRHAPGKESELVARITATGFRTYYADSVKGRFTISRDYAKNTVYLKMNSLKPEDTAVYYCPRTTSCVQNVRKYYYWGQGTQVTVSS | high polyreactivity
27 | QVQLEESGGGLVQAGGSLRLSCAASGITFEYYAMVWYRQAPGKERELVAANDTGGSTNYADSVKGRFTISRDNAKNTVYFLMNSLKPEDTEVYYCAADWSWWDGEDYHFEYDYWGQGTQVTVSS | low polyreactivity
28 | QVQLVESGGGLVQAGGSLRLTCAASGSTFGDYDMGWYRQAPGKERELVAAISNGGSTYYADSVKGRFTISRDNAKNTVYFQMNSLKPEDTAVYYCNADNVEIRSTYEYGRYLYGYWGQGTQVTVSS | low polyreactivity
29 | QVQLVESGGGLVQAGGSLRLSCAASGRTFTRYAMGWYRQAPGPERELVAASRWSGTRTYYAVSVKGRITISRDNAKNTVDLQMNSLTPEDTAVYYCAARDRVYPDYGYWGQGTQVTVSS | high polyreactivity
30 | QVQLVESGGGLVQAGGSLRLSCAASGRTFVYYAMGWYRQAPGKERELVASISSVGTTKYADSVQGRFTISRANAKNTVYLQMNSLKPEDTAVYYCAAVPLSRNIFDSWGQGTQVTVSS | low polyreactivity
31 | QVQLLESVGGLDQAGGSLRLSCAASGRTFKVYAMGWYRKATVKERELVAAISFSGGTTYYADSVKGRFTISRDNAKNTVYLQMNSLKQEDTAVSYCAAKRYGEYRARGYYYWGQGTQVTVSS | high polyreactivity
32 | QVQLVESGGGLVQAGGSLRLSCAASGFIFSYYAMGWYRQAPGKEREWVAAISKTGGNTYYADSVKGRFTISRDNAKKTVYLQMNSLKPEDTAVYYCNALRGDWRDMGYCGQGTQVTVSS | high polyreactivity
33 | QVQLVESVGGLVKAGGSLRLSCAASGRTFYNAMGWYRQAPGKERELVAAISSDGSTYYADSVKGRFTISRDNAKNTVYLQMNSLKPEDTAVYYCARDLGSWYYQVRFGYWGQGTQVTVSS | high polyreactivity
34 | QVQLVESGGGLVQAGGSLRLSCAASGRIFIAYAMGWYRKAPAKERELVAAITDDGGTNYADSVKGRFTISRDNAKNTVYLQMKSLKPEDTAVYYCAATYLIGYYYVWEYDYWGQGTQVTVSS | low polyreactivity
35 | QVQLVESGGGLVQAGGSLRLSCAASGSTFTQNTMGWYRQAPGKERELVAAISWSGTRTYYADSVKGRFTISRDNAKNTVYLQMNSLKPEDTAVYYCAARTHVPAEYDYWGQGTQVTVSS | high polyreactivity
36 | QVPLVESGVGLVQAGGSLRLSCAASGSIFSYYAMGWYRQATGKERELVAAITVRGGSTYYADSVKGRFSISRDNAKNTVYLQMYSLIPEDTAVYYCAAVWLDESFSYGPYYYWGQGTQVTVSS | low polyreactivity
37 | QVQLVESGGGLVQAGGSLRLSCAASGFTFGVYAMGWYRQAPGKERELVATISSSGSTNYADSVKGRFTISRDNAQNPVYLQMNSLKPEDTAVYYCAVYYLYRRRQYYYWGQGTQVTVSS | low polyreactivity
38 | QVQLVESGGGLVQAGGSLRLSCAASGRIFSHNAMGWYRQAPGKERELVASIRSSSGRTYYADSVKGRITISRDNAKNTVYLQMNSLTPEDTAVYYCAARQYSSKPYLYGYNYWGQGTQVTVSS | high polyreactivity
39 | QVQLVESGGGLVQAGGSLRLICAASGSIFVLYAMGWYRTAPGKERELVAAINYDGASTYYADSVKGRFTISRDNANNTFYLQMNSLKPKDTAVYYCAADVSYPVIYEYDYGGQGTQVTVSS | low polyreactivity
40 | QVQLVESGGGLVQAGGSLRLSCAASGNIFPDYAMGWYRQAPGKERELVAAISSSGSSTYYADSVKGRFTISRDNAKNTVYLQMNSLKKEDTAVYYCATRVYLPTFYIRDTQYYYWGQGTQVTVSS | low polyreactivity
41 | QVQLVESWGRLVQAGGSLRLSCAASGSTFTGNAMGWYRQAPGKERELVAVISSGASTNYADSVKGRFTISRDNAKNSVSLQMNSLKAEDSAVYYCAADSWDYDSRMDYWGQGTHVTVSS | low polyreactivity
42 | QVQLVESGGGLVQAGGSLRLSCAASGFIFSIYALGWYRQAPGKERELVAAISKSGGRTYYADSVKGRFTISRDNAKNTVYLQMNSLKPEDTAVYYCAVDSYYKYDYWGQGTQVTVSS | high polyreactivity
43 | QVQLVESGGGLVQAGRSLRLSCAASGRTFDEYAMGWYRQAPGKERELVAAISARGGRTYYADSVKGRFTISRDNAKNTVYLQMNSLKPEDTAVYYCAAAGYITRYDRYDYWGQGTQVTVSS | high polyreactivity
